Laboratory results as given in the supplement of paper PMC10567573.

B1: ZNF263 (parent)
chain: QRTHTGEKPYKCPECGEIFAHSSN
B2: FAM189A2 (parent)
chain: GSEAAVIPLDLGCTQVTQDGDIPN

Variants of: B1
Assay: protein stability index of a GFP-peptide fusion (GPS, HEK-293T) (PSI 1-6); higher = more stable
Conditions: c terminus: a fixed tail appended
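Also: lentivirally expressed fusions sorted by FACS into six bins by GFP to DsRed ratio, PSI derived from sequencing read proportions per bin multiplied by bin number.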

Protein stability index of substitutions, site by site:
N24: I 2.65, Y 2.96, D 3.88, A 3.74, V 2.61, P 2.61, F 2.74, C 5.06, R 2.39, G 3.04, W 2.85, Q 3.65, L 2.95, E 3.15, H 3.49, S 3.16, T 3.54, K 3.99, M 2.75
K8: P 3.4, N 3.46, Y 3.34, T 3.28, W 3.3, R 3.74, V 3, Q 3.38, S 3.36
P9: R 3.94, T 3.43, S 3.59, I 2.83, W 2.74, G 3.58, L 3.65, A 3.52, M 3.12, V 3.5, F 3.22, C 3.53, Q 3.25, Y 2.99, N 3.58, K 3.62, E 3.26, H 3.78, D 3.68
E14: H 3.82, G 3.31, A 4.22, C 3.71, T 3.12, R 3.77, Y 2.97, L 2.34, I 3.25, F 3.09, Q 2.73, V 2.95, S 3.77, N 4.24, K 3.75, P 3.52, W 2.63, D 3.1, M 3.82
S22: V 2.91, A 2.88, G 2.92, F 2.8, E 3.62, K 3.16, Q 2.81, M 2.49, W 3.31, D 3.64, P 2.88, N 3.38, Y 2.71, I 2.52, L 2.39, C 4.15, H 3.87, R 2.38, T 2.92
K11: Y 3.03, W 3.23, Q 3.13, D 4.28, P 4.12, T 2.98, C 3.62, V 3.17, I 3.1, L 3.39, M 2.97, N 3.52, R 3.23, F 3.23, A 3.56, G 3.54, E 3.99, H 3.39, S 3.83
Y10: M 3.66, C 4.75, W 3.46, Q 3.5, K 3.93, R 3.79, H 3.7, E 4.04, S 3.98, F 3.25, P 4.31, N 4.17, D 4.31, G 3.48, I 3.59, L 3.55, V 3.93, T 4.55, A 3.4
A20: V 3.04, L 2.63, I 3.46, T 3.11, K 3.25, H 3.45, P 3.53, D 3.67, G 3.16, Y 3.49, N 3.55, M 3.25, W 3.07, S 3.83, R 2.93, Q 3.59, E 3.76, C 3.75, F 3.18
G16: E 4, P 4.06, S 3.14, H 3.31, F 2.92, C 2.84, N 3.09, I 2.67, M 3.45, Y 3.18, R 3, W 2.64, V 3.61, K 3.27, Q 3.23, D 3.9, L 3.22, T 3.43, A 3.54
C12: N 4.45, P 4.42, I 3.6, Y 4.3, L 3.77, K 4.26, D 5.18, Q 4.35, R 4.2, W 3.62, F 4.12, S 4.52, V 3.31, E 4.53, H 4.13, T 4.57, A 4.27, M 4.35, G 3.98
S23: V 2.71, D 3.5, N 3.34, Q 3.31, Y 2.73, H 4.71, A 3.61, L 2.75, T 3.14, W 2.36, M 2.81, C 5.55, R 2.77, G 3.23, E 4.67, P 2.72, F 2.81, I 3.24, K 3.79
H21: P 3.5, Y 2.86, W 1.95, G 3.22, A 2.95, V 2.35, Q 3.43, N 2.86, S 3.43, E 3.21, C 3.5, M 3.19, K 3.78, F 2.74, T 3.15, R 3.16, I 2.05, D 2.5, L 2.3
P13: R 2.94, D 4.34, N 4.29, W 2.71, H 3.39, A 3.78, T 3.34, Y 3.57, G 3.71, S 3.41, V 3.48, F 2.52, L 3.56, Q 3.67, C 3.1, K 3.59, M 2.71, I 3.57, E 4.69
I18: H 3.29, D 3.52, M 3.73, V 3.56, S 2.53, G 4.05, Q 3.91, A 3.48, E 3.99, R 3, C 3.87, L 3.18, W 2.41, Y 3.48, N 3.79, P 3.43, T 3.9, F 2.97, K 3.83
F19: N 4.37, D 4.87, L 3.16, C 4.9, T 4.1, W 2.47, S 3.84, Q 3.83, E 4.25, V 3.46, P 3.75, M 3.56, A 4.38, G 4.28, Y 3.7, H 4.82, I 3.37, R 3.75, K 4.08
E17: G 2.53, W 3.01, D 3.13, N 3.83, R 3.38, P 3.72, Q 3.86, H 4.49, Y 4.23, C 4.6, T 4.77, A 4.67, I 2.85, M 3.27, F 4.53, K 3.98, L 2.6, V 2.6, S 4.02
C15: L 3.97, M 4.88, N 4.76, Y 3.68, R 4.29, W 3.88, Q 4.48, A 4.3, S 4.29, G 4.96, D 4.8, H 4.09, F 3.39, K 4.75, V 4.42, P 4.51, E 4.82, T 4.63, I 4.04

Variants of: B2
Assay: as above
Conditions: c terminus: a fixed tail appended

Protein stability index, by site and new letter:
S2: C 5.49, A 5.71
G1: L 5.43, M 5.33, W 4.31, Q 5.44, S 5.22, Y 4.26, C 4.75, E 5.05, I 4.68, D 5.34, R 5.24, K 5.25, A 5.53, F 4.84, T 5.58, V 5.2, H 5.29, P 5.38, N 5.46
